Assay results as given in US20250262297A1, “ALLERGY ANTIGEN AND EPITOPE THEREOF” (HOYU CO., LTD., priority 2017, published 2025).

These molecules were tested on IgE antibodies from soybean-allergic patients (assay: Immunoblotting of two-dimensional electrophoresis pattern of soybean proteins with patient serum). Conditions: spot in 2D electrophoresis gel of soybean proteins; patient serum compared with healthy subject serum.
Assay type: binding, human
Text: Transfer to membrane was done using the following transfer system and transfer buffer. • Transfer system: XCell SureLock Mini-Cell and XCell II Blot Module (produced by Life Technologies) • Transfer buffer: NuPAGE Transfer Buffer (X20) (produced by Life Technologies), used in a form diluted 20-fold with milliQ water.
To be specific, proteins in the two-dimensional electrophoresis gels were transferred to a membrane (PVDF membrane) according to the following procedure. • (1) The PVDF membrane was immersed in 100% methanol followed by milliQ water, and then moved into the transfer buffer to hydrophilize the PVDF membrane. • (2) After sponge, filter paper, the gels treated by second-dimensional SDS-PAGE, the hydrophilized PVDF membrane, filter paper, and sponge were put in place in this order, the transfer system was energized at a constant voltage of 30 V for one hour.
Immunoblotting of the membrane was carried out using, as a primary antibody, a serum sample from a patient with a soybean allergy or a serum sample from a healthy subject.
Immunoblotting of the membrane was carried out according to the following procedure. • (1) The transferred membrane was shaken in a 5% skim milk/PBST solution (a PBS buffer containing 0.3% Tween 20 nonionic surfactant) at room temperature for one hour. • (2) The membrane was left to stand in a solution of 3% primary antibody serum in 5% skim milk/PBST at room temperature for one hour. • (3) The membrane was washed with a PBST solution (5 min.×3 times). • (4) The membrane was left to stand in a 1:2500 dilution of the secondary antibody, anti-human IgE-HRP (horseradish peroxidase), with a 3% skim milk/PBST solution at room temperature for one hour. • (5) The membrane was washed with a PBST solution (5 min.×3 times). • (6) The membrane was left to stand in Pierce Western Blotting Substrate Plus (produced by Thermo Fisher Scientific) for 5 minutes.
The membrane obtained through the foregoing series of treatments was subjected to fluorescent image scanning on Typhoon 9400 (produced by GE).
The immunoblots obtained with the serum from the soybean-allergic patient were compared with those obtained with the control serum from the healthy subject.

Row | Molecule | specific binding to IgE antibodies from soybean-allergic patients
1 | sucrose binding protein homolog S-64 (protein) ETEVEEDPELVTCKHQCQQQRQYTESDKRTCLQQCDSMKQEREKQVEEETREKEEEHQEQHEEEQDQNPYVFEEDKDFSTRVETEGGSIRVLKKFTEKSKLLQGNENFRLAILEARAHTFVSPRHFDSEVVLFNIKGRAVLGLVRESETEKITLEPGDMIHIPAGTPLYIVNRDENEKLLLAMLHIPVSTPGKFEEFFGPGGRDPESVLSAFSWNVLQAALQTPKGKLERLFNQQNEGSIFKISRERVRALAPTKKSSWWPFGGESKAQFNIFSKRPTFSNGYGRLTEVGPDDEKSWLQRLNLMLTFTNITQRSMSTIHYNSHATKIALVMDGRGHLQISCPHMSSRSDSKHDKSSPSYHRISADLKPGMVFVVPPGHPFVTIASNKENLLIICFEVNVRDNKKFTFAGKDNIVSSLDNVAKELAFNYPSEMVNGVFERKESLFFPFELPSEERGRRAVA | specific binding
2 | hypothetical protein GLYMA_10G028300 (protein) ETEVEEEDPELVTCKHQCQQPQQYTEGDKRVCLQRCDRYHRMKQEREKQIQEETREKKEEESREREEEQQEQHEEQDENPYIFEEDKDFETRVETEGGRIRVLKKFTEKSKLLQGIENFRLAILEARAHTFVSPRHFDSEVVFFNIKGRAVLGLVSESETEKITLEPGDMIHIPAGTPLYIVNRDENDKLFLAMLHIPVSVSTPGKFEEFFGPGGRDPESVLSAFSWNVLQAALQTPKGKLEKLFDQQNEGSIFAISREQVRALAPTKKSSWWPFGGESKPQFNIFSKRPTISNGYGRLTEVGPDDDEKSWLQRLNLMLTFTNITQRSMSTIHYNSHATKIALVIDGRGHLQISCPHMSSRSSHSKHDKSSPSYHRISSDLKPGMVFVVPPGHPFVTIASNKENLLMICFEVNARDNKKFTFAGKDNIVSSLDNVAKELAFNYPSEMVNGVFDRKESFFFPFELPREERGRRADA | specific binding
3 | polyadenylate-binding protein 8 isoform X3 (protein) MAQVLENPTIDAAASGANPSLTTISLYVGDLHHDVNDPQLYDLFNQVAQVVSVRICRDVATQQSLGYGYVNFSNAHDAAKAIDVLNFTPLNGKIIRIMYSIRDPSARKSGAANVFIKNLDKAIDHKALYDTFSAFGNILSCKVATDASGQSKGHGFVQFESEESAQNAIDKLNGMLINDKQVFVGPFLRKQDRESALSGTKFNNVFVKNLLDSMTEADLERIFGEYGAITSAVVMRDVDGKSKGFGFVNFANVDDAAKAVEALNGKNFDGKEWYVGKAQKKSERELELKGQHEQITKETVDKYHGTNLYIKNLDDSVGDEELMELFSEFGTITSCKVMRDPNGISRGSGFVSFSIAEGATRALGEMNGKMVAGKPLYVALAQRKEDRRARLQAQFSQSRPAAITPNVSPRMPLYPLGAPAIGQQFLYGQAAPATIPQHFVPGMRPGGAPNFYVPLVQQGQQGQRPGGHRGSGPMQQLQQPLPLMHQQMLPRGHVYRYPSGSNMQNIQLAGVPGGMVTYGIGQQMPTQALASALANATPEQQRTMLGEALYPLVDKLEHEAAAKVTGMLLEMDQPEVLHLIESPDALKAKVVEAMDVLKKVTQQQSNSPADQLASLSLNDNVES | specific binding
4 | protein disulfide isomerase-like protein precursor (protein, Glycine max, spot also identified as protein disulfide-isomerase) MPKFFHSIFRGTMAGRVSTCFFFVFALSLLLPFQISAEESSEKEFVLTLDHSNFHDTVSKHDFIVVEFYAPWCGHCKKLAPEYEKAASILSSHDPPVVLAKIDANEEKNKDLASQYDVRGYPTIKILRNGGKNVQEYKGPREADGIVDYLKKQSGPASTEIKSADEATAFIGENKVAIVGVFPKFSGEEFDNFSALAEKLRSDYDFGHTLNAKHLPRGESSVSGPVVRLFKPFDELFVDFQDFNVEALEKFVEESSTPVVTVFNNDPSNHPFVAKFFNSPNAKAMLFINFTAEGAESFKSKYREAAEQHKQQGVSFLVGDVESSQGAFQYFGLKEEQVPLIIIQHNDGKKFFKPNLEADHIPTWLKAYKDGNVAPFVKSEPIPEANDEPVKVVVGNSLEDIVFKSGKNVLLEFYAPWCGHCKQLAPILDEVAISYQSDADVVIAKLDATANDIPSETFDVQGYPTVYFRSASGKLSQYEGGRTKEDIIEFIEKNRDKPAQQEQGQDKPAQQEQGQDEQEKGKDEL | specific binding
5 | V-type proton ATPase subunit B 2 (protein, Glycine max) MGVAQNIPDAEEGTLEIGMEYRTVSGVAGPLVILDKVKGPKFQEIVNIRLGDGTTRRGQVLEVDGEKAVVQVFEGTSGIDNKFTTVQFTGEVLKTPVSLDMLGRIFNGSGKPIDNGPPILPEAYLDISGSSINPSERTYPEEMIQTGISTIDVMNSIARGQKIPLFSAAGLPHNEIAAQICRQAGLVKRLEKSDNLLEGGGEEDNFAIVFAAMGVNMETAQFFKRDFEENGSMERVTLFLNLANDPTIERIITPRIALTTAEYLAYECGKHVLVILTDMSSYADALREVSAAREEVPGRRGYPGYMYTDLATIYERAGRIEGRKGSITQIPILTMPNDDITHPTPDLTGYITEGQIYIDRQLYNRQIYPPINVLPSLSRLMKSAIGEGMTRKDHSDVSNQLYANYAIGKDVQAMKAVVGEEALSSEDLLYLEFLEKFERKFVAQGAYDTRNIFQSLDLAWTLLRIFPRELLHRIPAKTLDQFYSRDASN | specific binding
6 | guanosine nucleotide diphosphate dissociation inhibitor 2 (protein, Glycine max) MDEEYDVIVLGTGLKECILSGLLSVDGLKVLHMDRNDYYGGESTSLNLIQLWKRFRGDDKPPPHLGASRDYNIDMNPKFIMANGNLVRVLIHTDVTKYLSFKAVDGSFVFNKGKVHKVPANDMEALKSPLMGLFEKRRARKFFIYVQNYNESDPKTHEGMDLTRVTTKELIAKYGLDDNTIDFIGHALALHSDDRYLAEPALDTVKRMKLYAESLARFQGGSPYIYPLYGLGELPQAFARLSAVYGGTYMLNKPECKVEFDEEGKVVGVTSEGETAKCKKVVCDPSYLPGKVRKVGRVARAIAIMSHPIPSTDDSHSVQIILPQKQLGRKSDMYLFCCSYTHNVAPKGKFIAFVSTEAETDQPAIELKPGIDLLGPVDEIFFDIYDRYEPVNEPTLDNCFVSTSYDATTHFESTVDDVLNMYTLITGKVIDLSVDLSAASAAEE | specific binding
7 | endoplasmin homolog isoform X2 (protein, Glycine max) MRKWTVASALLLLSLLFLFADQGRKFQANAEGDSDELVDPPKVEDKIGAVPHGLSTDSDVVKREAESISKRSLRSNAEKFEFQAEVSRLMDIIINSLYSNKDIFLRELISNASDALDKIRFLSLTDKEVLGEGDNTKLDIQIKLDKEKKILSIRDRGIGMTKEDLIKNLGTIAKSGTSAFVEKMQTSGDLNLIGQFGVGFYSVYLVADYVEVISKNNDDKQYVWESKADGAFAISEDTWNEPLGRGTEIRLHLKEEAGEYLEESKLKELVKRYSEFINFPIYIWASKEVDVEVPADEDDSSDEEDSSESSSKEESEDEDADKSEDEEKKPKTKTVKETTYEWELLNDVKAIWLRNPKEVTEEEYTKFYHSLAKDFSDEKPLAWSHFTAEGDVEFKAVLFVPPKAPQDLYESYYNANKSNLKLYVRRVFISDEFNELLPKYLNFLLGLVDSDTLPLNVSREMLQQHSSLKTIKKKLIRKALDMIRRIADEDPDESTDKEKKDASSDNDEKKGQYSKFWNEFGKSIKLGIIEDATNRNRLAKLLRFESTKSEGKLTSLDQYISRMKTGQKDIFYITGTSKEQLENSPFLERLKKKNFEVIFFTDPVDEYLMQYLMDYEDKKFQNVSKEGLKLGKDSKDKELKESFKDLTKWWKTALSKDNVDDVKISNRLDNTPCVVVTSKFGWSANMERIMQSQTLSDASKQAYMRGKRVLEINPRHPIIKELRERVVKNPEDEGVKHTAQLMYQTALFESGFLLDDPKDFASRIYDSVKTSLDISPEATVEEEDDTEVEAESDAKEDSKPETDAVNDDNDVKDEL | specific binding
8 | succinyl-CoA ligase [ADP-forming] subunit beta, mitochondrial (protein, Glycine max) MVRGLLNKLVSRSLSVAGKWQHNQLRRLNIHEYQGAELMSKHGVNVPRGVAVSSVEEARKVIKDLFPNENELVVKSQILAGGRGLGTFKSGLKGGVHIVKTDQVEDIAGKMLGQILVTKQTGPQGKIVSKVYLCEKLSLVNEMYFAITLDRTSAGPIIIACSKGGTSIEDLAEKFPDMIIKVPVDVFEGITDEGAAKVVDGLALKVADRNKSIEQVKNLYKLFVDCDCTLLEINPIAETADNQLVAADAKLNFDDNAAYRQKEIFSLRDTTQEDPREVTAAKADLNYIGLDGEIGCMVNGAGLAMATMDIIKLHGGTPANFLDVGGNASENQVVEAFKILTADDKVKAILVNIFGGIMKCDVIASGIVNAAKEVALKVPVVVRLEGTNVDQGKRILKESGMALITAEDLDDAAQKAVKAAYK | specific binding
